T1: PDZD2_3, O15018
T1 sequence (O15018 581-682, limits assumed, looked up): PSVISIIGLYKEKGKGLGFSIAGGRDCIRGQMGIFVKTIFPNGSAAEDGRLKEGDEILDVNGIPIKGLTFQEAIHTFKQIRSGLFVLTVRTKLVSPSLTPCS

T2: PARD6G, Q9BYG4
T2 sequence (Q9BYG4 153-261, limits assumed, looked up): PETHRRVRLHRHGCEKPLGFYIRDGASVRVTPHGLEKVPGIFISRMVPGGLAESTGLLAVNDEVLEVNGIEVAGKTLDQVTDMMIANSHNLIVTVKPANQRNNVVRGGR

T3: PDZRN3_2, Q9UPQ7
T3 sequence (Q9UPQ7 414-513, limits assumed, looked up): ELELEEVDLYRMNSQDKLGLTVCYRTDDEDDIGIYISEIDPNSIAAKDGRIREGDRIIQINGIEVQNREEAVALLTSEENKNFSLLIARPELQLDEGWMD

T4: PDZD11, Q5EBL8
T4 sequence (Q5EBL8 42-139, limits assumed, looked up): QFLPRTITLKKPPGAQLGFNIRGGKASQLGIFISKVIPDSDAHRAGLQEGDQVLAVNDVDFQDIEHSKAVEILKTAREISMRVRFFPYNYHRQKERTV

T5: PDZD2_6, O15018
T5 sequence (O15018 2745-2839, limits assumed, looked up): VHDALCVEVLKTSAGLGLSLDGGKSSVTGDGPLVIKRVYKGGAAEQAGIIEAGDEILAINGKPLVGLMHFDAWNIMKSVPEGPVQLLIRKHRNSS

T6: MPDZ_13, O75970
T6 sequence (O75970 1982-2070, limits assumed, looked up): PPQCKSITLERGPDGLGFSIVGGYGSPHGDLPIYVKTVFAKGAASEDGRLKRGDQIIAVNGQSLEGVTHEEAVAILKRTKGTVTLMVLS

T7: PARD6B, Q9BYG5
T7 sequence (Q9BYG5 152-260, limits assumed, looked up): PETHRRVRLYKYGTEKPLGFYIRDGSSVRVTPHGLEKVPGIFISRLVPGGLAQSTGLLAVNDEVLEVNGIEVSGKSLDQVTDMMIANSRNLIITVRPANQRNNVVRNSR

T8: SHROOM4, Q9ULL8
T8 sequence (Q9ULL8 5-102, limits assumed, looked up): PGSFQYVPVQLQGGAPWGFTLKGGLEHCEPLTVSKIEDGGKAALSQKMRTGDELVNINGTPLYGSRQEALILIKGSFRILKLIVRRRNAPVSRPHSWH

T9: PTPN13_5, Q12923
T9 sequence (Q12923 1877-1975, limits assumed, looked up): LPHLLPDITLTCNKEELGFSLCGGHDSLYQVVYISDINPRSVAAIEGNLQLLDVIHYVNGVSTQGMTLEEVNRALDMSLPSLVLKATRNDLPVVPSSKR

T10: TJP3_2, O95049
T10 sequence (O95049 190-282, limits assumed, looked up): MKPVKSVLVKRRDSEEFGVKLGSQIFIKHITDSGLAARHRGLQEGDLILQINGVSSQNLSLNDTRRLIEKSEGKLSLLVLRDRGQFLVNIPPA

T11: GIPC1, O14908
T11 sequence (O14908 128-223, limits assumed, looked up): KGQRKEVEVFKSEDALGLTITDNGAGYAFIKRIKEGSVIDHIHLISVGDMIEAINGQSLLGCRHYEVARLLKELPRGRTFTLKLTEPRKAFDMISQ

T12: NHERF1_1, O14745
T12 sequence (O14745 9-104, limits assumed, looked up): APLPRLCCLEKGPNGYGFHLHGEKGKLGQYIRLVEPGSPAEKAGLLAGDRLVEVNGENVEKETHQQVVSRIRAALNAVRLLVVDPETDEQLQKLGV

T13: SYNPO2L, Q9H987
T13 sequence (Q9H987 1-98, limits assumed, looked up): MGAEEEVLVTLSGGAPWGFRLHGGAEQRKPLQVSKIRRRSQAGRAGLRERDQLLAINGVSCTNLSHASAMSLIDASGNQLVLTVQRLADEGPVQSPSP

B1: HPV33-E6, P06427 (peptide)
chain: SRSRRRETAL
B2: HPV82-E6, Q9IR59 (peptide)
chain: PPRQRSETQV

Target: NHERF4_3, Q86UT5
Assay: holdup assay
Parameters: key: below the threshold = too weak to quantify, mostly under pKd 3.1 to 4
Conditions: plain residues with an end cap or a label only (N-terminal biotin on a linker: ttds)

Sequence of NHERF4_3, Q86UT5 (Q86UT5 325-412): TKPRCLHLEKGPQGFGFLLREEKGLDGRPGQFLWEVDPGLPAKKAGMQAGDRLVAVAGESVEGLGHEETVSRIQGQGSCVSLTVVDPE

Row | Binder | pKd
1 | B1 | below the threshold
2 | B2 | below the threshold

Target: T1, PDZD2_3, O15018
Assay: holdup assay
Parameters: key: below the threshold = too weak to quantify, mostly under pKd 3.1 to 4
Conditions: plain residues with an end cap or a label only (N-terminal biotin on a linker: ttds)

Row | Binder | pKd
3 | B1 | below the threshold
4 | B2 | below the threshold

Target: MAGI1_4, Q96QZ7
Assay: holdup assay
Parameters: key: below the threshold = too weak to quantify, mostly under pKd 3.1 to 4
Conditions: plain residues with an end cap or a label only (N-terminal biotin on a linker: ttds)

Sequence of MAGI1_4, Q96QZ7 (Q96QZ7 other isoform, or with tags, fused parts or gaps): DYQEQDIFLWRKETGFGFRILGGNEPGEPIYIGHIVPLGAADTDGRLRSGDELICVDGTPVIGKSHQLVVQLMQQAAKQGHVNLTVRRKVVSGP

Row | Binder | pKd
5 | B1 | below the threshold
6 | B2 | 4.2

Target: T2, PARD6G, Q9BYG4
Assay: holdup assay
Parameters: key: below the threshold = too weak to quantify, mostly under pKd 3.1 to 4
Conditions: plain residues with an end cap or a label only (N-terminal biotin on a linker: ttds)

Row | Binder | pKd
7 | B1 | below the threshold
8 | B2 | below the threshold

Target: T3, PDZRN3_2, Q9UPQ7
Assay: holdup assay
Parameters: key: below the threshold = too weak to quantify, mostly under pKd 3.1 to 4
Conditions: plain residues with an end cap or a label only (N-terminal biotin on a linker: ttds)

Row | Binder | pKd
9 | B1 | below the threshold
10 | B2 | below the threshold

Target: IL16_2, Q14005
Assay: holdup assay
Parameters: key: below the threshold = too weak to quantify, mostly under pKd 3.1 to 4
Conditions: plain residues with an end cap or a label only (N-terminal biotin on a linker: ttds)

Sequence of IL16_2, Q14005 (Q14005 350-450): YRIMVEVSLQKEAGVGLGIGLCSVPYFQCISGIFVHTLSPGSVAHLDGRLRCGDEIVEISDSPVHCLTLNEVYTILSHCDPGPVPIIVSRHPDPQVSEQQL

Row | Binder | pKd
11 | B1 | below the threshold
12 | B2 | below the threshold

Target: CARD14, Q9BXL6
Assay: holdup assay
Parameters: key: below the threshold = too weak to quantify, mostly under pKd 3.1 to 4
Conditions: plain residues with an end cap or a label only (N-terminal biotin on a linker: ttds)

Sequence of CARD14, Q9BXL6 (Q9BXL6 558-663): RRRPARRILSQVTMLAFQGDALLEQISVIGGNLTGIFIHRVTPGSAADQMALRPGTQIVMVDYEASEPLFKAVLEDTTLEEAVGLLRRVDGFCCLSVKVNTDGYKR

Row | Binder | pKd
13 | B1 | below the threshold
14 | B2 | below the threshold

Target: T4, PDZD11, Q5EBL8
Assay: holdup assay
Parameters: key: below the threshold = too weak to quantify, mostly under pKd 3.1 to 4
Conditions: plain residues with an end cap or a label only (N-terminal biotin on a linker: ttds)

Row | Binder | pKd
15 | B1 | below the threshold
16 | B2 | below the threshold

Target: T5, PDZD2_6, O15018
Assay: holdup assay
Parameters: key: below the threshold = too weak to quantify, mostly under pKd 3.1 to 4
Conditions: plain residues with an end cap or a label only (N-terminal biotin on a linker: ttds)

Row | Binder | pKd
17 | B1 | below the threshold
18 | B2 | below the threshold

Target: T6, MPDZ_13, O75970
Assay: holdup assay
Parameters: key: below the threshold = too weak to quantify, mostly under pKd 3.1 to 4
Conditions: plain residues with an end cap or a label only (N-terminal biotin on a linker: ttds)

Row | Binder | pKd
19 | B1 | below the threshold
20 | B2 | below the threshold

Target: NHERF2_1, Q15599
Assay: holdup assay
Parameters: key: below the threshold = too weak to quantify, mostly under pKd 3.1 to 4
Conditions: plain residues with an end cap or a label only (N-terminal biotin on a linker: ttds)

Sequence of NHERF2_1, Q15599 (Q15599 9-91): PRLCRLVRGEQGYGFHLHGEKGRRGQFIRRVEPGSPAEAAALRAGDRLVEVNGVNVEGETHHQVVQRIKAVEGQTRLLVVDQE

Row | Binder | pKd
21 | B1 | below the threshold
22 | B2 | below the threshold

Target: T7, PARD6B, Q9BYG5
Assay: holdup assay
Parameters: key: below the threshold = too weak to quantify, mostly under pKd 3.1 to 4
Conditions: plain residues with an end cap or a label only (N-terminal biotin on a linker: ttds)

Row | Binder | pKd
23 | B1 | below the threshold
24 | B2 | below the threshold

Target: MAST3, O60307
Assay: holdup assay
Parameters: key: below the threshold = too weak to quantify, mostly under pKd 3.1 to 4
Conditions: plain residues with an end cap or a label only (N-terminal biotin on a linker: ttds)

Sequence of MAST3, O60307 (O60307 945-1048): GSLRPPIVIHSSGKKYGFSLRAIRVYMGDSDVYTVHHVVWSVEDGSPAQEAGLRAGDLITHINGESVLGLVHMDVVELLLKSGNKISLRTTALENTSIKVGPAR

Row | Binder | pKd
25 | B1 | below the threshold
26 | B2 | below the threshold

Target: Inadl_7, Q8NI35
Assay: holdup assay
Parameters: key: below the threshold = too weak to quantify, mostly under pKd 3.1 to 4
Conditions: plain residues with an end cap or a label only (N-terminal biotin on a linker: ttds)

Sequence of Inadl_7, Q8NI35 (Q8NI35 1219-1332): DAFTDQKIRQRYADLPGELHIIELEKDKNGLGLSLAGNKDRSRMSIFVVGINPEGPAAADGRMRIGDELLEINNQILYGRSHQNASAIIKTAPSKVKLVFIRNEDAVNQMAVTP

Row | Binder | pKd
27 | B1 | below the threshold
28 | B2 | below the threshold

Target: T8, SHROOM4, Q9ULL8
Assay: holdup assay
Parameters: key: below the threshold = too weak to quantify, mostly under pKd 3.1 to 4
Conditions: plain residues with an end cap or a label only (N-terminal biotin on a linker: ttds)

Row | Binder | pKd
29 | B1 | below the threshold
30 | B2 | below the threshold

Target: MAGIX, Q9H6Y5
Assay: holdup assay
Parameters: key: below the threshold = too weak to quantify, mostly under pKd 3.1 to 4
Conditions: plain residues with an end cap or a label only (N-terminal biotin on a linker: ttds)

Sequence of MAGIX, Q9H6Y5 (Q9H6Y5 118-211): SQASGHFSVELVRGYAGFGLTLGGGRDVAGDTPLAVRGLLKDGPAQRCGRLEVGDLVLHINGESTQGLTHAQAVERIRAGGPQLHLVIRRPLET

Row | Binder | pKd
31 | B1 | below the threshold
32 | B2 | below the threshold

Target: T9, PTPN13_5, Q12923
Assay: holdup assay
Parameters: key: below the threshold = too weak to quantify, mostly under pKd 3.1 to 4
Conditions: plain residues with an end cap or a label only (N-terminal biotin on a linker: ttds)

Row | Binder | pKd
33 | B1 | below the threshold
34 | B2 | below the threshold

Target: T10, TJP3_2, O95049
Assay: holdup assay
Parameters: key: below the threshold = too weak to quantify, mostly under pKd 3.1 to 4
Conditions: plain residues with an end cap or a label only (N-terminal biotin on a linker: ttds)

Row | Binder | pKd
35 | B1 | below the threshold
36 | B2 | below the threshold

Target: T11, GIPC1, O14908
Assay: holdup assay
Parameters: key: below the threshold = too weak to quantify, mostly under pKd 3.1 to 4
Conditions: plain residues with an end cap or a label only (N-terminal biotin on a linker: ttds)

Row | Binder | pKd
37 | B1 | below the threshold
38 | B2 | 4.27

Target: T12, NHERF1_1, O14745
Assay: holdup assay
Parameters: key: below the threshold = too weak to quantify, mostly under pKd 3.1 to 4
Conditions: plain residues with an end cap or a label only (N-terminal biotin on a linker: ttds)

Row | Binder | pKd
39 | B1 | below the threshold
40 | B2 | below the threshold

Target: T13, SYNPO2L, Q9H987
Assay: holdup assay
Parameters: key: below the threshold = too weak to quantify, mostly under pKd 3.1 to 4
Conditions: plain residues with an end cap or a label only (N-terminal biotin on a linker: ttds)

Row | Binder | pKd
41 | B1 | below the threshold
42 | B2 | below the threshold

Target: RIMS2, Q9UQ26
Assay: holdup assay
Parameters: key: below the threshold = too weak to quantify, mostly under pKd 3.1 to 4
Conditions: plain residues with an end cap or a label only (N-terminal biotin on a linker: ttds)

Sequence of RIMS2, Q9UQ26 (Q9UQ26 637-758): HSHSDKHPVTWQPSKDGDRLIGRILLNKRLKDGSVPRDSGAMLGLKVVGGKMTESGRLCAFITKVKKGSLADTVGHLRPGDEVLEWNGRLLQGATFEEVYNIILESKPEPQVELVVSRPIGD

Row | Binder | pKd
43 | B1 | below the threshold
44 | B2 | below the threshold

Target: PREX1_1, Q8TCU6
Assay: holdup assay
Parameters: key: below the threshold = too weak to quantify, mostly under pKd 3.1 to 4
Conditions: plain residues with an end cap or a label only (N-terminal biotin on a linker: ttds)

Sequence of PREX1_1, Q8TCU6 (Q8TCU6 608-718): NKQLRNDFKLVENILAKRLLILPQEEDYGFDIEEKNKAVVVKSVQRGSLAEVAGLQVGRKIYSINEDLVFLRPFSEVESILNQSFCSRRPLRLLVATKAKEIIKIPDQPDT

Row | Binder | pKd
45 | B1 | below the threshold
46 | B2 | below the threshold

Target: MAGI3_4, Q5TCQ9
Assay: holdup assay
Parameters: key: below the threshold = too weak to quantify, mostly under pKd 3.1 to 4
Conditions: plain residues with an end cap or a label only (N-terminal biotin on a linker: ttds)

Sequence of MAGI3_4, Q5TCQ9 (Q5TCQ9 716-815): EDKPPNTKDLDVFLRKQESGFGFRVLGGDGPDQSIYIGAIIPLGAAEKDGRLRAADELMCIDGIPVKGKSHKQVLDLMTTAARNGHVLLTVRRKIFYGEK

Row | Binder | pKd
47 | B1 | below the threshold
48 | B2 | below the threshold

Target: GIPC3, Q8TF64
Assay: holdup assay
Parameters: key: below the threshold = too weak to quantify, mostly under pKd 3.1 to 4
Conditions: plain residues with an end cap or a label only (N-terminal biotin on a linker: ttds)

Sequence of GIPC3, Q8TF64 (Q8TF64 107-202): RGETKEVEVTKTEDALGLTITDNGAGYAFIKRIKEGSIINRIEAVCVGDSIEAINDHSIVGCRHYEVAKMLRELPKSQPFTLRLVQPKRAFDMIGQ

Row | Binder | pKd
49 | B1 | below the threshold
50 | B2 | below the threshold

— PMC9482650, “Quantitative fragmentomics allow affinity mapping of interactomes” (Nature Communications, 2022)
